# Test results: the RNAGym collection of RNA variant scans (doi:10.7554/elife.80360)
# B1: HDV Ribozyme (parent)
# chain: GGCCGGCAUGGUCCCAGCCUCCUCGCUGGCGCCGGCUGGGCAACAUUCCGAGGGGACCGUCCCCUCGGUAAUGGCGAAUGGGACCCA
# Variants of: B1
# Assay: self-cleavage, relative activity (ratio to wild type); higher = more cleavage; co-transcriptional
row,Variant,self-cleavage
1,U65A C85A,0.858
2,U65A C85U,0.791
3,G68U U69C,0.935
4,G68C A78G,0.426
5,C63U C75U,0.324
6,C63U G68A,0.973
7,C62G C66U,0.554
8,C62U A71U,1.05
9,G68C A87U,0.799
10,U65G U79C,0.19
11,G67C U72G,0.231
12,G68U G76C,1.11
13,U65G C84A,1.04
14,G68A U69G,0.917
15,U65G A78G,0.957
16,U65G A78C,0.119
17,C62G G81C,0.208
18,C64U A87C,0.971
19,U65C G80C,0.249
20,G67U A78U,0.253
21,C63U C66A,0.978
22,G67C A83C,0.293
23,C64A C85G,0.594
24,C62A C63G,0.7

row,Variant,self-cleavage
1,C64U A77G,1.01
2,G67C G73U,0.322
3,C62A G68C,0.883
4,C62G C75U,0.189
5,C63U G76U,1.15
6,U65C A77U,0.806
7,U65A G80A,0.201
8,C62A G74U,0.367
9,C62A G74A,0.619
10,U65C G68C,0.883
11,C62G C86A,0.752
12,C62G C86U,0.923
13,C62G G68A,0.199
14,C62G G68U,0.425
15,C62G G82U,0.0923
16,G68C C85A,1.17
17,U65C G73U,0.554
18,U65C G73A,0.746
19,G67U G81A,0.254
20,C62A C84U,0.618
21,C64G A83C,0.373
22,G68C U72C,0.38
23,G68C U72A,0.499
24,U65C A78C,0.293

row,Variant,self-cleavage
1,C62U G74C,0.234
2,C62U G74A,0.383
3,C62G G76A,1.02
4,G67U U72A,0.665
5,G68U A78C,0.161
6,G67U C84U,0.771
7,C64A U69G,1.15
8,C64A U69A,1.06
9,U65A A70U,1.14
10,C66U G67A,0.786
11,C64A C75G,0.18
12,C64A C75A,0.237
13,C64A C75U,0.332
14,C64G G76U,1.05
15,C64G G76C,0.702
16,G67U A77C,0.373
17,G67U G74A,0.379
18,G67U G74C,0.151
19,G68U C75A,0.234
20,C64U A70U,1.01
21,C63G G74C,0.128
22,G68U G80U,0.257
23,C62A C86G,0.975
24,C62A C86U,1.03

row,Variant,self-cleavage
1,U69C U72A,0.499
2,U69C U72C,0.9
3,C61U G81A,0.44
4,C63U C84A,0.76
5,U69A A77G,0.72
6,G67U C75U,0.104
7,G67A A71C,0.752
8,C63U G67C,0.96
9,C63U G67U,1.02
10,C63U G67A,0.933
11,C64U C66A,0.95
12,C64U C66U,1.01
13,C62G A87C,0.661
14,C62G A87U,0.716
15,U69C C84U,0.852
16,C66G A77G,0.612
17,C61U G82A,0.325
18,C62A A83C,0.315
19,C64G U69G,0.91
20,C64G U69C,1.29
21,C64G G82C,0.0811
22,C64G G82U,0.228
23,U65G A70U,0.892
24,U65G A70G,1.05

row,Variant,self-cleavage
1,C66U A78C,0.178
2,C66U A78G,0.69
3,C62A C85U,1.05
4,C66G C86U,0.931
5,C66G C86G,1.07
6,C66G C86A,0.984
7,U69C A78U,0.375
8,C63G A70U,0.564
9,C63G A70G,0.76
10,C66G A83U,0.415
11,C66G A83G,0.72
12,G67C A78U,0.225
13,G68C A83U,0.318
14,C62G C84U,0.846
15,C62G C84A,0.712
16,C66A U79C,0.582
17,C66U U79C,0.571
18,C62G A70U,0.665
19,G67A A77U,0.339
20,G67U G80U,0.25
21,C63G C85A,0.95
22,C64A C86A,0.942
23,U69C G74C,0.0923
24,U69C G81U,0.369

row,Variant,self-cleavage
1,U65G G67U,0.569
2,U65G G67C,0.156
3,G67A G81A,0.302
4,C63G A78G,0.54
5,C66U,1.01
6,C66G,0.973
7,C66A,0.975
8,C66G C84U,0.545
9,C66G C84G,0.745
10,U65C C86G,1.18
11,C63G C66U,0.386
12,C61U U79C,0.487
13,U65C A71C,0.703
14,C63U A87U,1.01
15,U65G C75A,0.259
16,U65G C75G,0.323
17,G68A A87C,0.918
18,C62U U69G,1.07
19,C64G G68C,0.264
20,U69A A70G,0.98
21,U65A A78C,0.259
22,C62G A71G,0.346
23,C64U G73A,0.81
24,C63U U69C,0.964

row,Variant,self-cleavage
1,C66U A71G,0.909
2,C62A C75G,0.0519
3,C63U G73U,0.409
4,C62G A77C,0.353
5,C62G A77G,0.745
6,C66U A77C,0.34
7,C62U A83C,0.359
8,C62U A83U,0.318
9,G68C A70U,0.778
10,U65G A87C,0.859
11,U65G A87G,0.973
12,C66U G82U,0.277
13,U65A G67A,0.98
14,C64A A87U,0.71
15,G68A G74A,0.51
16,G67A A83C,0.464
17,C62U A70C,0.734
18,C62U A70U,0.831
19,U65G C66G,0.812
20,U69C C85U,1.15
21,G67C G74C,0.123
22,C66G U79C,0.521
23,G68A C85G,0.774
24,C62U G81A,0.531

row,Variant,self-cleavage
1,U65G A71U,0.863
2,G67A G80U,0.203
3,C62A U79G,0.862
4,U69A G82A,0.233
5,G67A G82C,0.224
6,G67U U69A,0.801
7,G68A,0.952
8,G68U,0.932
9,G68C,0.911
10,G67C A77C,0.227
11,C66U A87C,0.875
12,C66U A87G,0.999
13,C62A C64G,0.142
14,C62A C64A,0.332
15,C66A A87C,1
16,C62G G73A,0.534
17,C62G G73C,0.446
18,C63G A71G,0.656
19,C63G A71U,0.712
20,C62U A77G,0.831
21,C63G C64U,0.753
22,C63G C64A,0.862
23,U69A G81U,0.332
24,G67C G76U,1.11

row,Variant,self-cleavage
1,G67C G76A,1.11
2,C66G A71G,1.05
3,C66G A71U,1.01
4,C66G A71C,1.03
5,G68C G81A,0.526
6,G67C A87U,0.858
7,G67C U69C,1
8,G67C U69A,0.96
9,G67C U69G,0.943
10,U69A A78G,0.959
11,U65C G74A,0.456
12,G67C C75G,0.0475
13,G67C C75U,0.0545
14,G67C C75A,0.0652
15,C62G C85A,0.717
16,C62G C85U,0.902
17,C63A G80C,0.332
18,G68C G82C,0.259
19,G67U G82A,0.28
20,G67U G82C,0.182
21,C63U A70G,1.02
22,C63A A83U,0.77
23,G68C U79G,0.516
24,C63G U65A,0.415

row,Variant,self-cleavage
1,C66U G74U,0.475
2,C62A G81C,0.138
3,U65A A87U,0.96
4,C63G U72G,0.192
5,G68A A71C,0.58
6,C63U C86G,1.11
7,U69C A70U,0.875
8,U69C A70C,1.23
9,C63G A83U,0.271
10,C63G A83C,0.249
11,U69A A71C,0.935
12,U69A A71U,1.27
13,C61U G73A,0.547
14,U65A G76U,1.04
15,C62U U72C,0.636
16,G68U A83C,0.538
17,U65G G80C,0.185
18,C66A C85G,0.918
19,G68A U79A,0.554
20,U65A G68A,0.641
21,G68U C85A,0.707
22,U65A A83U,0.539
23,C63G U69A,1.16
24,C64A G73A,0.385

row,Variant,self-cleavage
1,C64A G73U,0.332
2,C63A G73C,0.332
3,C63A G73A,0.681
4,C63A G73U,0.3
5,U69C A77G,0.997
6,C66G G81U,0.214
7,C66G G81A,0.408
8,C66G G81C,0.193
9,C61U U69G,0.864
10,C64G C84G,0.76
11,G67A C75G,0.181
12,C64A G82C,0.199
13,G67U A71U,0.992
14,G68U G74A,0.328
15,G68U G74C,0.222
16,C64G A71U,0.863
17,C64G G67A,0.356
18,G68C A71G,0.831
19,C66U C84G,0.57
20,U69C G80C,0.0396
21,C61U G67U,0.842
22,U69A G74U,0.665
23,C66G G73C,0.46
24,C62A A71G,1.03

row,Variant,self-cleavage
1,C62A A71C,0.85
2,C62G G67A,0.095
3,C64G C75G,0
4,C62U A78C,0.0936
5,C62U A78U,0.282
6,C64A U65C,0.831
7,U69A C75U,0.155
8,G68A C75A,0.164
9,U65G G82U,0.453
10,G67C A70G,0.712
11,C62G A83C,0.253
12,C64U G68U,0.607
13,U65A C66A,1.08
14,U65C A87C,1.09
15,G67A U72A,0.532
16,C64G U72A,0.614
17,C63G G73U,0.397
18,U65G G76A,0.95
19,C66G A87C,0.857
20,C66G A87G,1.06
21,C66G A87U,0.853
22,U65G A77U,0.554
23,C62A G80U,0.16
24,U69C A83C,0.57

row,Variant,self-cleavage
1,C66U A83G,0.643
2,G68A A83C,0.519
3,G68A A83G,0.522
4,G68C G74A,0.362
5,C63U A78C,0.237
6,C63U A78G,0.755
7,C63U A78U,0.287
8,U65G U69C,0.877
9,G68A G82U,0.324
10,C64U G80C,0.158
11,C61U U65C,0.914
12,C66G G67A,0.706
13,G67A A87U,1.06
14,G67A A87C,0.956
15,U69A G73A,0.619
16,C66U U69G,0.867
17,U65A G73U,0.217
18,G68U G73C,0.205
19,G68U G73U,0.0923
20,G68U A77G,0.578
21,G68U A77C,0.232
22,C62A G76C,1.02
23,G68U G81A,0.492
24,G68U G81U,0.197

row,Variant,self-cleavage
1,U69C A71C,0.475
2,C64U U79C,0.306
3,C64U U79G,0.847
4,C63G U79A,0.856
5,C63G U79C,0.697
6,G67C A71U,0.716
7,C64G C86A,0.946
8,C63G C84G,0.306
9,C63A A78C,0.108
10,C64A C66G,0.489
11,C64A C66A,0.573
12,G67U C86A,1
13,C62U C75U,0.173
14,G67U A87U,0.898
15,G67U A87G,0.91
16,C61U U72G,0.567
17,U65C U79C,0.415
18,C66G G76A,1.02
19,C63A C85G,0.849
20,C66U G80U,0.295
21,C66G G68C,0.554
22,C62G U65C,0.427
